# Data from patent US20210324028A1 (Pfizer, published 2021).
# Numbering of substitutions follows the chain as printed. Names and notes keep the numbering of the source.
# T1: human IL-2Rβ (human, UniProt P14784 27-240, limits assumed)
# T1 construct: also called hIL-2Rβ; IL-2 receptor beta
# T1 sequence (looked up): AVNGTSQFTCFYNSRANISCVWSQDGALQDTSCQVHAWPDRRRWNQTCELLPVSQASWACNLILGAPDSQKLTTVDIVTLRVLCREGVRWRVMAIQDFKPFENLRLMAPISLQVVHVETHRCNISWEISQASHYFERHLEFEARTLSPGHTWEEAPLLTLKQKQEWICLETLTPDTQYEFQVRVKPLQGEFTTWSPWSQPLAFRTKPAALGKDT
# B1: hIL-15 V49R/D30A (ligand)
# chain: NWVNVISDLKKIEDLIQSMHIDATLYTESAVHPSCKVTAMKCFLLELQRISLESGDASIHDTVENLIILANNSLSSNGNVTESGCKECEELEEKNIKEFLQSFVHIVQMFINTGGGGSGHHHHHHHHGGGLNDIFEAQKIEWHE
# B2: hIL-15 V49R/I68W (ligand)
# chain: B1 chain with A30D, I68W
# B3: hIL-15 V49R/H32N (ligand)
# chain: B1 chain with A30D, H32N
# B4: hIL-15 V49R/D30R (ligand)
# chain: B1 chain with A30R
# B5: hIL-15 V49R/N4T (ligand)
# chain: B1 chain with N4T, A30D
# B6: hIL-15 V49R/L69N (ligand)
# chain: B1 chain with A30D, L69N
# B7: hIL-15 V49R/N4R (ligand)
# chain: B1 chain with N4R, A30D
# B8: hIL-15 V49R/D30V (ligand)
# chain: B1 chain with A30V
# B9: hIL-15 V49R/I68G (ligand)
# chain: B1 chain with A30D, I68G
# B10: hIL-15 V49R/H32E (ligand)
# chain: B1 chain with A30D, H32E
# B11: hIL-15 V49R/I68E (ligand)
# chain: B1 chain with A30D, I68E
# B12: hIL-15 V49R/H32S (ligand)
# chain: B1 chain with A30D, H32S
# B13: hIL-15 V49R/D30L (ligand)
# chain: B1 chain with A30L
# B14: hIL-15 V49R/H32M (ligand)
# chain: B1 chain with A30D, H32M
# B15: hIL-15 V49R/L69Y (ligand)
# chain: B1 chain with A30D, L69Y
# B16: hIL-15 V49R/E64N (ligand)
# chain: B1 chain with A30D, E64N
# B17: hIL-15 V49R/D30Y (ligand)
# chain: B1 chain with A30Y
# B18: hIL-15 V49R/L69H (ligand)
# chain: B1 chain with A30D, L69H
# B19: hIL-15 V49R/D61A (ligand)
# chain: B1 chain with A30D, D61A
# B20: hIL-15 V49R/D30Q (ligand)
# chain: B1 chain with A30Q
# B21: hIL-15 V49R/D30F (ligand)
# chain: B1 chain with A30F
# B22: hIL-15 V49R/N4P (ligand)
# chain: B1 chain with N4P, A30D
# B23: hIL-15 V49R/D30E (ligand)
# chain: B1 chain with A30E
# B24: hIL-15 V49R/E64Q (ligand)
# chain: B1 chain with A30D, E64Q
# B25: hIL-15 V49R/H32G (ligand)
# chain: B1 chain with A30D, H32G
# B26: hIL-15 V49R/H32D (ligand)
# chain: B1 chain with A30D, H32D
# B27: hIL-15 V49R/H32R (ligand)
# chain: B1 chain with A30D, H32R
# B28: hIL-15 V49R/H32A (ligand)
# chain: B1 chain with A30D, H32A
# B29: hIL-15 V49R/L69F (ligand)
# chain: B1 chain with A30D, L69F
# B30: hIL-15 V49R/L69Q (ligand)
# chain: B1 chain with A30D, L69Q
# B31: hIL-15 V49R/H32I (ligand)
# chain: B1 chain with A30D, H32I
# B32: hIL-15 V49R/E64T (ligand)
# chain: B1 chain with A30D, E64T
# B33: hIL-15 V49R/H32K (ligand)
# chain: B1 chain with A30D, H32K
# B34: hIL-15 V49R/D30S (ligand)
# chain: B1 chain with A30S
# B35: hIL-15 V49R/D30T (ligand)
# chain: B1 chain with A30T
# B36: hIL-15 V49R/E64A (ligand)
# chain: B1 chain with A30D, E64A
# B37: hIL-15 V49R/E64D (ligand)
# chain: B1 chain with A30D, E64D
# B38: hIL-15 V49R/D30N (ligand)
# chain: B1 chain with A30N
# B39: hIL-15 V49R/S7P (ligand)
# chain: B1 chain with S7P, A30D
# B40: hIL-15 V49R/E64H (ligand)
# chain: B1 chain with A30D, E64H
# B41: hIL-15 V49R/H32L (ligand)
# chain: B1 chain with A30D, H32L
# B42: hIL-15 V49R/L69R (ligand)
# chain: B1 chain with A30D, L69R
# B43: hIL-15 V49R/D30K (ligand)
# chain: B1 chain with A30K
# B44: hIL-15 V49R/D30I (ligand)
# chain: B1 chain with A30I
# B45: hIL-15 V49R/H32P (ligand)
# chain: B1 chain with A30D, H32P
# B46: hIL-15 V49R/D30M (ligand)
# chain: B1 chain with A30M
# B47: hIL-15 V49R/H32Q (ligand)
# chain: B1 chain with A30D, H32Q
# B48: hIL-15 V49R/D30H (ligand)
# chain: B1 chain with A30H
# B49: hIL-15 V49R/I68Q (ligand)
# chain: B1 chain with A30D, I68Q
# B50: hIL-15 V49R/N4F (ligand)
# chain: B1 chain with N4F, A30D
# B51: hIL-15 V49R/K11M (ligand)
# chain: B1 chain with K11M, A30D
# B52: hIL-15 V49R/D30W (ligand)
# chain: B1 chain with A30W
# B53: hIL-15 V49R/H32W (ligand)
# chain: B1 chain with A30D, H32W
# B54: hIL-15 V49R/H32T (ligand)
# chain: B1 chain with A30D, H32T
# B55: hIL-15 V49R/K11F (ligand)
# chain: B1 chain with K11F, A30D
# Target: T2, human IL-15Rα (human, UniProt Q13261 31-205, limits assumed)
# T2 construct: also called hIL-15Rα; IL-15 receptor alpha
# Test: SPR, steady state
# T2 sequence (Q13261 31-205 limits assumed): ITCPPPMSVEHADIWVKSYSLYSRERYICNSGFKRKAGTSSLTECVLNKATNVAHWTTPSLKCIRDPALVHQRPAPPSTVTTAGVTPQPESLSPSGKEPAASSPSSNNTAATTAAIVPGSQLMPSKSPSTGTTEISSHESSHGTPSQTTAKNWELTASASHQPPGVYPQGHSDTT
row,Kd [nM],Binder
1,151,B1
2,93.7,B2
3,85.9,B3
4,155,B4
5,~88.6,B5
6,44,B6
7,56.1,B7
8,153,B8
9,101,B9
10,108,B10
11,122,B11
12,110,B12
13,237,B13
14,134,B14
15,137,B15
16,115,B16
17,159,B17
18,54.5,B18
19,78.2,B19
20,111,B20
21,166,B21
22,356,B22
23,124,B23
24,127,B24
25,249,B25

row,Kd [nM],Binder
1,85.5,B26
2,~131,B27
3,152,B28
4,106,B29
5,~43.3,B30
6,113,B31
7,141,B32
8,92.8,B33
9,146,B34
10,184,B35
11,130,B36
12,108,B37
13,94,B38
14,> 500,B39
15,112,B40
16,189,B41
17,111,B42
18,158,B43
19,197,B44
20,162,B45
21,142,B46
22,64,B47
23,121,B48
24,132,B49

# Target: T1, human IL-2Rβ
# Test: SPR, steady state
row,Kd [nM],Binder
1,273,B1
2,124,B3
3,290,B4
4,258,B8
5,130,B10
6,176,B12
7,277,B13
8,161,B14
9,247,B50
10,> 500,B16
11,231,B17
12,> 500,B19
13,197,B20
14,213,B21
15,165,B23
16,> 500,B24
17,459,B25
18,123,B26
19,180,B51
20,156,B27
21,218,B28

row,Kd [nM],Binder
1,110,B31
2,321,B52
3,> 500,B32
4,149,B33
5,249,B34
6,269,B35
7,376,B53
8,> 500,B36
9,186,B54
10,291,B37
11,163,B38
12,> 1000,B40
13,159,B41
14,351,B43
15,201,B44
16,146,B45
17,238,B46
18,147,B47
19,149,B48
20,162,B55
